The target of one data set is T1, PEG-T7-Q.
T1 chain: GGPLGVRGKKC

B1: KLK14 (protein)
chain: IIGGHTCTRSSQPWQAALLAGPRRRFLCGGALLSGQWVITAAHCGRPILQVALGKHNLRRWEATQQVLRVVRQVTHPNYNSRTHDNDLMLLQLQQPARIGRAVRPIEVTQACASPGTSCRVSGWGTISSPIARYPASLQCVNINISPDEVCQKAYPRTITPGMVCAGVPQGGKDSCQGDSGGPLVCRGQLQGLVSWGMERCALPGYPGVYTNLCKYRSWIEETMRDK
As to B1, the “Top hit (cleavage of PEG-coupled FRET substrate by recombinant proteases)” value in the data set with PEG-T49-Q and in the data set with PEG-T50-Q was “KLK14” in each case.

B2: MMP11 (protein)
chain: FVLSGGRWEKTDLTYRILRFPWQLVQEQVRQTMAEALKVWSDVTPLTFTEVHEGRADIMIDFARYWHGDDLPFDGPGGILAHAFFPKTHREGDVHFDYDETWTIGDDQGTDLLQVAAHEFGHVLGLQHTTAAKALMSAFYTFRYPLSLSPDDCRGVQHLYGQPWPTVTSRTPALG
Consider B2, for which the “Top hit (cleavage of PEG-coupled FRET substrate by recombinant proteases)” value in the data set with PEG-T53-Q was “MMP11”.

B3: PRSS3 (protein)
chain: IVGGYTCEENSLPYQVSLNSGSHFCGGSLISEQWVVSAAHCYKTRIQVRLGEHNIKVLEGNEQFINAAKIIRHPKYNRDTLDNDIMLIKLSSPAVINARVSTISLPTTPPAAGTECLISGWGNTLSFGADYPDELKCLDAPVLTQAECKASYPGKITNSMFCVGFLEGGKDSCQRDSGGPVVCNGQLQGVVSWGHGCAWKNRPGVYTKVYNYVDWIKDTIAANS
For the protein B3, the “Second hit (cleavage of PEG-coupled FRET substrate by recombinant proteases)” value (shortened to “Second hit”) in the data set with PEG-T58-Q and with PEG-T49-Q was “PRSS3” throughout.

B4: KLK4 (protein)
chain: IINGEDCSPHSQPWQAALVMENELFCSGVLVHPQWVLSAAHCFQNSYTIGLGLHSLEADQEPGSQMVEASLSVRHPEYNRPLLANDLMLIKLDESVSESDTIRSISIASQCPTAGNSCLVSGWGLLANGRMPTVLQCVNVSVVSEEVCSKLYDPLYHPSMFCAGGGHDQKDSCNGDSGGPLICNGYLQGLVSFGKAPCGQVGVPGVYTNLCKFTEWIEKTVQAS
As for B4, in the data set with PEG-T51-Q, the “Top hit (cleavage of PEG-coupled FRET substrate by recombinant proteases)” value is “KLK4”; the substrate cleavage entry is “T40 and T51 are cleaved by MMP26 and KLK4, respectively”.

B5: KLK12 (protein)
chain: IFNGTECGRNSQPWQVGLFEGTSLRCGGVLIDHRWVLTAAHCSGSRYWVRLGEHSLSQLDWTEQIRHSGFSVTHPGYLGASTSHEHDLRLLRLRLPVRVTSSVQPLPLPNDCATAGTECHVSGWGITNHPRNPFPDLLQCLNLSIVSHATCHGVYPGRITSNMVCAGGVPGQDACQGDSGGPLVCGGVLQGLVSWGSVGPCGQDGIPGVYTYICKYVDWIRMIMRNN
For the protein B5, the “Second hit” value with PEG-T50-Q was “KLK12”.

B6: ADAM12 (protein)
chain: ETLKATKYVELVIVADNREFQRQGKDLEKVKQRLIEIANHVDKFYRPLNIRIVLVGVEVWNDMDKCSVSQDPFTSLHEFLDWRKMKLLPRKSHDNAQLVSGVYFQGTTIGMAPIMSMCTADQSGGIVMDHSDNPLGAAVTLAHELGHNFGMNHDTLDRGCSCQMAVEKGGCIMNASTGYPFPMVFSSCSRKDLETSLEKGMGVCLFNLPEVRESFGGQKCGNRFVEEGEECDCGEPEECMNRCCNATTCTLKPDAVCAHGLCCEDCQLKPAGTACRDSSNSCDLPEFCTGASPHCPANVYLHDGHSCQDVDGYCYNGICQTHEQQCVTLWGPGAKPAPGICFERVNSAGDPYGNCGKVSKSSFAKCEMRDAKCGKIQCQGGASRPVIGTNAVSIETNIPLQQGGRILCRGTHVYLGDDMPDPGLVLAGTKCADGKICLNRQCQNISVFGVHECAMQCHGRGVCNNRKNCHCEAHWAPPFCDKFGFGGSTDSGPIRQADNQG
As for B6, in the data set with PEG-T41-Q, the “Top hit (cleavage of PEG-coupled FRET substrate by recombinant proteases); additional note: Poorly cleaved” value is listed as “ADAM12”. Further, the “Top hit (cleavage of PEG-coupled FRET substrate by recombinant proteases)” value in the data set with PEG-T54-Q is reported as “ADAM12”. Also, the “Second hit” value in the data set with PEG-T40-Q was “ADAM12”.

B7: MMP26 (protein)
chain: TSISPGRCKWNKHTLTYRIINYPHDMKPSAVKDSIYNAVSIWSNVTPLIFQQVQNGDADIKVSFWQWAHEDGWPFDGPGGILGHAFLPNSGNPGVVHFDKNEHWSASDTGYNLFLVATHEIGHSLGLQHSGNQSSIMYPTYWYHDPRTFQLSADDIQRIQHLYGEKCSSDIP
For B7, the “Second hit” value in the data set with PEG-T53-Q is given as “MMP26”. In addition, in the data set with PEG-T40-Q, the “Top hit (cleavage of PEG-coupled FRET substrate by recombinant proteases)” value is on record as “MMP26”; the substrate cleavage entry is “T40 and T51 are cleaved by MMP26 and KLK4, respectively”. The “Second hit” value with PEG-T7-Q is given as “MMP26”.

The values above are taken from patent US20190212291.
